Test results published in patent US20160264677A1 (GANYMED PHARMACEUTICALS, published 2016).

T1: human CLDN4 (claudin 4) (human, UniProt O14493 1-209)
T1 sequence: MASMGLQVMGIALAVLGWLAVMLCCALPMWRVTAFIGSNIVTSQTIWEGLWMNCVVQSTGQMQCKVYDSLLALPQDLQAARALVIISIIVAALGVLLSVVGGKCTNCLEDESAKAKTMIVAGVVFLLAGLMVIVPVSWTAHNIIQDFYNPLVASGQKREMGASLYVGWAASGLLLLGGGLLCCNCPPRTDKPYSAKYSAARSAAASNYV

T2: human CLDN3 (claudin 3) (human, UniProt O15551 1-220)
T2 sequence: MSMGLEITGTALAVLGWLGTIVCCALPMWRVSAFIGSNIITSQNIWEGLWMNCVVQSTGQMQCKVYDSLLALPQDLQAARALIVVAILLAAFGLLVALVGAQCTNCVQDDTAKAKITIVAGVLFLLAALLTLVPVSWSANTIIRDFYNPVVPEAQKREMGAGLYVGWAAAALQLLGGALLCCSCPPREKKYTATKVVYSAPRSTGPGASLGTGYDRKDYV

T3: human CLDN6 (claudin 6), full length (human, UniProt P56747 1-220)
T3 construct: denatured cell lysate in the Western blot; also called NP 067018.2
T3 sequence: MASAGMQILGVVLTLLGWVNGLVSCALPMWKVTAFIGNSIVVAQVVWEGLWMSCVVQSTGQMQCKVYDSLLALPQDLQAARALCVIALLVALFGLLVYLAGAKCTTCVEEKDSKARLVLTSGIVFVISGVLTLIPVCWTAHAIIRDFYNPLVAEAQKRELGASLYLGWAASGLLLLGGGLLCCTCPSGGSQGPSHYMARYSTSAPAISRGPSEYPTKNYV

T4: human CLDN9 (claudin 9) (human, UniProt O95484 1-217)
T4 sequence: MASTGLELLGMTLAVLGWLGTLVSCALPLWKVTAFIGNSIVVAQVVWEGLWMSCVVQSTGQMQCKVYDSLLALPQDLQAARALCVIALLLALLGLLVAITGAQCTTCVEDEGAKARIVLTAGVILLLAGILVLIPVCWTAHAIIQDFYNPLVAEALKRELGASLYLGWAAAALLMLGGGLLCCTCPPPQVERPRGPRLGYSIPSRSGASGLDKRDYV


Columns and labels:
human CLDN4 (claudin 4) [1] = biological target: T1, human CLDN4 (claudin 4); assay: flow cytometry, HEK293 cells stably expressing the claudin
Procedure: (§1) To test the specificities and affinities of CLDN6-specific chimeric monoclonal antibodies binding to HEK293 cells stably transfected with CLDN3, 4, 6 or 9, respectively, and tumor cell lines that endogenously express CLDN6 was analyzed by flow cytometry. Therefore, cells were harvested with 0.05% Trypsin/EDTA, washed with FACS buffer (PBS containing 2% FCS and 0.1% sodium azide) and resuspended in FACS buffer at a concentration of 2×10⁶ cells/ml. 100 μl of the cell suspension were incubated with the appropriate antibody at indicated concentrations for 60 min at 4° C. A chimeric cross-reactive antibody (chimAB 5F2D2) was used to detect CLDN6 and CLDN9 expression. […] The cells were washed twice and resuspended in FACS buffer. The binding was analyzed by flow cytometry using a BD FACSArray.

human CLDN3 (claudin 3) [2] = biological target: T2, human CLDN3 (claudin 3); assay: as above
Procedure: as §1

[3] = biological target: T3, human CLDN6 (claudin 6), full length; assay: flow cytometry, saturation binding on HEK293 cells stably expressing human CLDN6, median fluorescence
Procedure: (§2) The binding of CLDN6-specific chimeric monoclonal antibodies to cells expressing the target was analyzed by flow cytometry. Therefore, cells were harvested with 0.05% Trypsin/EDTA, washed with FACS buffer (PBS containing 2% FCS and 0.1% sodium azide) and resuspended in FACS buffer at a concentration of 2×10⁶ cells/ml. 100 pl of the cell suspension were incubated with the appropriate antibody at indicated concentrations for 30 min at 4° C. […] The cells were washed twice and resuspended in FACS buffer. The binding was analyzed by flow cytometry using a BD FACSArray.

[4] = biological target: T3, human CLDN6 (claudin 6), full length; assay: flow cytometry, NEC8 testicular cancer cells endogenously expressing human CLDN6
Procedure: as §2

[5] = biological target: T3, human CLDN6 (claudin 6), full length; assay: flow cytometry on OV90 ovarian cancer cells endogenously expressing CLDN6, median fluorescence
Procedure: as §2

[6] = biological target: T3, human CLDN6 (claudin 6), full length; assay: flow cytometry on NEC8 testicular cancer cells endogenously expressing CLDN6, median fluorescence
Procedure: as §2

human CLDN9 (claudin 9) [7] = biological target: T4, human CLDN9 (claudin 9); assay: flow cytometry, HEK293T cells transiently co-transfected with the claudin and a fluorescence reporter
human CLDN3 (claudin 3) [8] = biological target: T2, human CLDN3 (claudin 3); assay: as above
human CLDN4 (claudin 4) [9] = biological target: T1, human CLDN4 (claudin 4); assay: as above
human CLDN9 (claudin 9) [10] = biological target: T4, human CLDN9 (claudin 9); assay: as above; remark: listed apart in the source
Procedure: (§3) To test the binding of monoclonal antibodies to CLDN6 and its homologous HEK293T cells were transiently transfected with the corresponding claudin-coding plasmid and the expression was analyzed by flow cytometry. In order to differentiate between transfected and non-transfected cells, HEK293T cells were co-transfected with a fluorescence marker as a reporter. 24 h post transfection cells were harvested with 0.05% trypsin/EDTA, washed with FACS buffer (PBS containing 2% FCS and 0.1% sodium azide) and resuspended in FACS buffer at a concentration of 2×10⁶ cells/ml. 100 μl of the cell suspension were incubated with the appropriate antibody at indicated concentrations for 30 min at 4° C. […] The cells were washed twice and resuspended in FACS buffer. The binding was analyzed by flow cytometry using a BD FACSArray. The expression of the fluorescence marker was plotted on the horizontal axis against the antibody binding on the vertical axis.

human CLDN4 (claudin 4) [11] = biological target: T1, human CLDN4 (claudin 4); assay: as above; remark: listed apart in the source
Procedure: as §3

human CLDN3 (claudin 3) [12] = biological target: T2, human CLDN3 (claudin 3); assay: as above; remark: listed apart in the source
Procedure: as §3

human CLDN9 (claudin 9) [13] = biological target: T4, human CLDN9 (claudin 9); assay: flow cytometry, HEK293 cells stably expressing the claudin
Procedure: as §1

Row | Binder | EC50 (read off the curve) [3] [µg/mL] | EC50 (read off the curve) [5] [µg/mL] | EC50 (read off the curve) [6] [µg/mL] | binding result (human CLDN9 (claudin 9) [7]) | binding result (human CLDN3 (claudin 3) [8]) | also measured
1 | chimeric monoclonal antibody chimAB 64A (antibody, human IgG1, kappa, V domains shown, Mouse/human chimeric IgG1, kappa) VH: EVQLQQSGPELVKPGASMKISCKASGYSFTGYTMNWVKQSHGKNLEWIGLINPYNGGTIYNQKFKGKATLTVDKSSSTAYMELLSLTSEDSAVYYCARDYGFVLDYWGQGTTLTVSS VL: QIVLTQSPSIMSVSPGEKVTITCSASSSVSYMHWFQQKPGTSPKLCIYSTSNLASGVPARFSGRGSGTSYSLTISRVAAEDAATYYCQQRSNYPPWTFGGGTKLEIKR | ~0.2 |  |  |  |  | binding result (human CLDN4 (claudin 4) [1]): no binding (tested: 25 µg/ml (legend)); binding result (human CLDN3 (claudin 3) [2]): no binding (tested: 25 µg/ml (legend))
2 | chimeric monoclonal antibody mAb206-LCC (antibody, human IgG1, kappa, V domains shown, inferred; also called light-chain combination variant) VH: EVQLQQSGPELVKPGASMKISCKASGYSFTGYTMNWVKQSHGKNLEWIGLINPYNGGTIYNQKFKGKATLTVDKSSSTAYMELLSLTSEDSAVYYCARDYGFVLDYWGQGTTLTVSS VL: QIVLTQSPAIMSASPGEKVTITCSASSSVSYLHWFQQKPGTSPKLWVYSTSNLPSGVPARFGGSGSGTSYSLTISRMEAEDAATYYCQQRSIYPPWTFGGGTKLEIKR | ~0.2 | ~0.4 | ~0.2 | no binding | no binding | fold stronger binding affinity compared to chimAB 64A, mAb206-SUBG and mAb206-SUBS [4]: 3 fold
3 | chimeric monoclonal antibody mAb206-SUBG (antibody, human IgG1, kappa, V domains shown, Chimeric IgG1, kappa; also called amino acid substitution variant (C46G)) VH: EVQLQQSGPELVKPGASMKISCKASGYSFTGYTMNWVKQSHGKNLEWIGLINPYNGGTIYNQKFKGKATLTVDKSSSTAYMELLSLTSEDSAVYYCARDYGFVLDYWGQGTTLTVSS VL: QIVLTQSPSIMSVSPGEKVTITCSASSSVSYMHWFQQKPGTSPKLGIYSTSNLASGVPARFSGRGSGTSYSLTISRVAAEDAATYYCQQRSNYPPWTFGGGTKLEIKR | ~0.2 | ~0.5 | ~0.5 | no binding | no binding | binding result (human CLDN4 (claudin 4) [9]): no binding
4 | chimeric monoclonal antibody mAb206-SUBS (antibody, human IgG1, kappa, V domains shown, Chimeric IgG1, kappa; also called amino acid substitution variant (C46S)) VH: EVQLQQSGPELVKPGASMKISCKASGYSFTGYTMNWVKQSHGKNLEWIGLINPYNGGTIYNQKFKGKATLTVDKSSSTAYMELLSLTSEDSAVYYCARDYGFVLDYWGQGTTLTVSS VL: QIVLTQSPSIMSVSPGEKVTITCSASSSVSYMHWFQQKPGTSPKLSIYSTSNLASGVPARFSGRGSGTSYSLTISRVAAEDAATYYCQQRSNYPPWTFGGGTKLEIKR | ~0.2 | ~0.5 | ~0.5 | no binding | no binding | binding result (human CLDN4 (claudin 4) [9]): no binding
5 | murine monoclonal antibody muMAB 61D (antibody, mouse IgG2a, V domains shown, the assignment is an inference; also called GT512muMAB 61D; DSM ACC3069) VH: EVQLQQSGPELVKPGASMKISCKASGYSFTGYTMNWVKQSHGKNLEWIGLINPYNGGTSYNQKFKGKATLTIDKSSSTAYMELLSLTSEDSAVYYCARDYGYVLDYWGQGTTLTVSS VL: QIVLTQSPAIMSASPGEKVTITCSASSSVSYLHWFQQKPGTSPKLWVYSTSNLPSGVPARFGGSGSGTSYSLTISRMEAEDAATYYCQQRSIYPPWTFGGGTKLEIK |  |  |  |  |  | binding result (human CLDN9 (claudin 9) [10]): no binding (tested: 25 µg/ml (legend)); binding result (human CLDN4 (claudin 4) [11]): no binding (tested: 25 µg/ml (legend)); binding result (human CLDN3 (claudin 3) [12]): no binding (tested: 25 µg/ml (legend))
6 | murine monoclonal antibody muMAB 64A (antibody, mouse IgG2a, V domains shown, also called GT512muMAB 64A; DSM ACC3070) VH: EVQLQQSGPELVKPGASMKISCKASGYSFTGYTMNWVKQSHGKNLEWIGLINPYNGGTIYNQKFKGKATLTVDKSSSTAYMELLSLTSEDSAVYYCARDYGFVLDYWGQGTTLTVSS VL: QIVLTQSPSIMSVSPGEKVTITCSASSSVSYMHWFQQKPGTSPKLCIYSTSNLASGVPARFSGRGSGTSYSLTISRVAAEDAATYYCQQRSNYPPWTFGGGTKLEIK |  |  |  |  |  | binding result (human CLDN4 (claudin 4) [11]): no binding (tested: 25 µg/ml (legend)); binding result (human CLDN3 (claudin 3) [12]): no binding (tested: 25 µg/ml (legend))
7 | chimeric monoclonal antibody chimAB 61D (antibody, human IgG1, kappa, V domains shown, Mouse/human chimeric IgG1, kappa) VH: EVQLQQSGPELVKPGASMKISCKASGYSFTGYTMNWVKQSHGKNLEWIGLINPYNGGTSYNQKFKGKATLTIDKSSSTAYMELLSLTSEDSAVYYCARDYGYVLDYWGQGTTLTVSS VL: QIVLTQSPAIMSASPGEKVTITCSASSSVSYLHWFQQKPGTSPKLWVYSTSNLPSGVPARFGGSGSGTSYSLTISRMEAEDAATYYCQQRSIYPPWTFGGGTKLEIKR |  |  |  |  |  | binding result (human CLDN9 (claudin 9) [13]): no binding (tested: 25 µg/ml (legend)); binding result (human CLDN4 (claudin 4) [1]): no binding (tested: 25 µg/ml (legend)); binding result (human CLDN3 (claudin 3) [2]): no binding (tested: 25 µg/ml (legend))
